For orientation: Kd means the equilibrium constant for the complex coming apart.

Series [1] deals with unmodified mononucleosomes (Xenopus). The series can be described thus: BLI; biotinylated mononucleosomes immobilised on streptavidin biosensors; Jarid2 1-530 at 2–25 μM; 25 °C; 10 mM HEPES pH 7.4, 150 mM NaCl, 3 mM EDTA, 0.005% Tween-20, 1 mg/ml BSA; kon and koff from kobs versus concentration; n=3.
In series [2] the target is H2AK119u1(I44A) mononucleosomes (Xenopus | not stated) (UniProt P0CG48). The description is as above.
Series [3] deals with H2AK119u1-modified mononucleosomes (Xenopus | not stated). The series is described as above.
In series [4] the test system is JARID2 1-530 (hJARID2). The series can be described thus: BLI. The conditions noted are these: BLI: 10 mM HEPES pH 7.4, 150 mM NaCl, 3 mM EDTA, 0.005% Tween-20, 1 mg/ml BSA, 25 C, pull-down buffer not given in the material.

For the substance “hJARID2 1–530 (from UniProt Q92833 1-530) (domain or fragment)”, the Kd in series [1] was 5 µM; in series [2], 5.1 µM; in series [3], 2.8 µM.

In series [4] (kon 576 s-1 (so in the source), H2A K119C crosslinked to His-ubiquitin G67C (so in the source) by 1,3-dichloroacetone), H2AK119u1 mononucleosome (601, 147 bp) showed a Kd of 2.8 µM.

Turning to unmodified mononucleosome (601, 147 bp), the equilibrium dissociation constant (Kd) in series [4] (kon 313 s-1 (so in the source)) is 5 µM.

As for “H2AK119u1(I44A) mononucleosome (601, 147 bp)”, the Kd in series [4] (H2A K119C crosslinked to His-ubiquitin I44A;G67C (so in the source)) turned out to be 5.1 µM.
